Bridge positions count the residues as written; N and C are the ends. Ends that are not written are not given here.
T1: MASP-1 CCP1-CCP2-SP (human, UniProt P48740 298-699, limits assumed)
T1 construct: domain: CCP1-CCP2-SP; Recombinant fragment
T1 sequence (looked up): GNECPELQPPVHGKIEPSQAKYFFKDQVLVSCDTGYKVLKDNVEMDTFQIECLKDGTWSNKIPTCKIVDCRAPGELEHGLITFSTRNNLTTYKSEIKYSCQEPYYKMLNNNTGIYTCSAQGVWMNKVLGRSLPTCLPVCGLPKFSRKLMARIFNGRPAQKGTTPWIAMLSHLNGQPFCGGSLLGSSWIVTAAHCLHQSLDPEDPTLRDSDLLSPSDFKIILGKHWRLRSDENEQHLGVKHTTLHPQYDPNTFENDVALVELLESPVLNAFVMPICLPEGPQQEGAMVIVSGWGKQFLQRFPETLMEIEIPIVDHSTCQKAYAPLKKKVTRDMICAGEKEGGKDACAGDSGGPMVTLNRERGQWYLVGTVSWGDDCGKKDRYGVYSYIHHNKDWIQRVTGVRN

B1: M1-3E-Y12W (peptide)
peptide: GVCSRSLPPICWPD
modifications: disulfide 3-11 (inferred)
notes: The parent M1-3E was not tested as a synthetic peptide
B2: M2-4G (peptide)
peptide: GICSRSLPPICIPD
modifications: disulfide 3-11 (inferred)
notes: Synthetic consensus peptide of the non-selective group, linear form; also called "NS" peptide; non-selective peptide

Assays:
MASP-2 CCP1-CCP2-SP [1] = molecular target: T2, MASP-2 CCP1-CCP2-SP (human, UniProt O00187 298-686, limits assumed); test: enzyme inhibition, Z-L-Lys-SBzl substrate, tight-binding fit
T2 construct: domain: CCP1-CCP2-SP; Recombinant fragment
T2 sequence (O00187 298-686 limits assumed): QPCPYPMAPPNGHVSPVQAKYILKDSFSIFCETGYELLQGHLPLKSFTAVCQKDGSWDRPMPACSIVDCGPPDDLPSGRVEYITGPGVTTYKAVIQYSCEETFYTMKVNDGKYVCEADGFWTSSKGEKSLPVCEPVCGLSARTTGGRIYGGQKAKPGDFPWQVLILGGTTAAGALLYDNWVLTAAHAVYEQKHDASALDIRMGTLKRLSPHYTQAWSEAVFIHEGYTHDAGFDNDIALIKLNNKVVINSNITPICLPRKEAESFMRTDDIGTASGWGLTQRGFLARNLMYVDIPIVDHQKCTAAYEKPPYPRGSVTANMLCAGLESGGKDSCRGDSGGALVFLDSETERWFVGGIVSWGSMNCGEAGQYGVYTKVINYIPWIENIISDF

Trypsin = test: as above
Sequence of Trypsin (P00760 24-246): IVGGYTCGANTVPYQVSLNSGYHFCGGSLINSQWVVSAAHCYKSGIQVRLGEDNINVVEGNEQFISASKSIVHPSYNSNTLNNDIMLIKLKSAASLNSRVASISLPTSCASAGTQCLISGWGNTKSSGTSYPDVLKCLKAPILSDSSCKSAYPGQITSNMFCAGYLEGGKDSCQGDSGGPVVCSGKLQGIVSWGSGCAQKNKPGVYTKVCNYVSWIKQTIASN

MASP-1 CCP1-CCP2-SP [2] = molecular target: T1, MASP-1 CCP1-CCP2-SP; test: as above
Thrombin = test: enzyme inhibition, Z-Gly-Pro-Arg-pNa substrate, tight-binding fit
MASP-2 CCP1-CCP2-SP [3] = molecular target: T2, MASP-2 CCP1-CCP2-SP; test: preliminary experiments, method not described
MASP-1 CCP1-CCP2-SP [4] = molecular target: T1, MASP-1 CCP1-CCP2-SP; test: preliminary experiments, method not described

| Binder | Ki (MASP-2 CCP1-CCP2-SP [1]) [nM] | Ki (Trypsin) [nM] | Ki (MASP-1 CCP1-CCP2-SP [2]) [nM] | Ki (Thrombin) [nM] | binding result (MASP-2 CCP1-CCP2-SP [3]) | binding result (MASP-1 CCP1-CCP2-SP [4]) |
| --- | --- | --- | --- | --- | --- | --- |
| cyclo(GICSRSLPPICIPD) (disulfide 3-11 (inferred), Backbone-cyclised form of M2-4G) [M2-4G cyclic] | 750 | 350 | 275 | – | – | – |
| B1 | 5000 | 170 | 140 | – | – | – |
| GMCSRSYPPVCIPD (disulfide 3-11 (inferred), Point mutant of M2-6E) [M2-6E-Y2M] | 1500 | 4000 | 4000 | – | – | – |
| GWCSRSYPPVCIPD (disulfide 3-11 (inferred), Point mutant of M2-6E) [M2-6E-Y2W] | 580 | 1700 | – | – | – | – |
| GYCSRSIPPVCIPD (disulfide 3-11 (inferred), Point mutant of M2-6E) [M2-6E-Y7I] | 7000 | 160 | – | – | – | – |
| B2 | 1030 | 260 | 65 | 10000 | – | – |
| EVTCEPGTTFKDKCNTCRCGSDGKSAACTLKACPQ (other, UniProt O46162 57-91, looked up) [Schistocerca Gregaria Chymotrypsin Inhibitor (SGCI)] | – | – | – | – | no binding | no binding |

Reference: patent US20120214748A1 (published 2012)
